US9593156B2 (priority 2012, dated 2017)
One block for each molecule: values may come before it. Ends that are not written are not given here.

Legend:
IGF-1 receptor = IGF-1 receptor (Homo sapiens, UniProt P08069); test: IGF-1 receptor competition binding assay (scintillation proximity); parameters: expressed in transfected cells; plasma membrane fragments; settings: Table 9; IGF-1 Receptor
[1] = target: T1, type B insulin receptor (IR-B) (Homo sapiens, UniProt P06213); test: Receptor kinase activity (phosphorylation) assay, type B insulin receptor; format: cell-based
T1 construct: expressed in transfected cells; host or cells: HEK293

[2] = target: T2, type A insulin receptor (IR-A) (Homo sapiens, UniProt P06213); test: Receptor kinase activity (phosphorylation) assay, type A insulin receptor; format: cell-based
T2 construct: expressed in transfected cells; host or cells: HEK293

Chain of IGF-1 receptor (P08069 31-736 limits assumed): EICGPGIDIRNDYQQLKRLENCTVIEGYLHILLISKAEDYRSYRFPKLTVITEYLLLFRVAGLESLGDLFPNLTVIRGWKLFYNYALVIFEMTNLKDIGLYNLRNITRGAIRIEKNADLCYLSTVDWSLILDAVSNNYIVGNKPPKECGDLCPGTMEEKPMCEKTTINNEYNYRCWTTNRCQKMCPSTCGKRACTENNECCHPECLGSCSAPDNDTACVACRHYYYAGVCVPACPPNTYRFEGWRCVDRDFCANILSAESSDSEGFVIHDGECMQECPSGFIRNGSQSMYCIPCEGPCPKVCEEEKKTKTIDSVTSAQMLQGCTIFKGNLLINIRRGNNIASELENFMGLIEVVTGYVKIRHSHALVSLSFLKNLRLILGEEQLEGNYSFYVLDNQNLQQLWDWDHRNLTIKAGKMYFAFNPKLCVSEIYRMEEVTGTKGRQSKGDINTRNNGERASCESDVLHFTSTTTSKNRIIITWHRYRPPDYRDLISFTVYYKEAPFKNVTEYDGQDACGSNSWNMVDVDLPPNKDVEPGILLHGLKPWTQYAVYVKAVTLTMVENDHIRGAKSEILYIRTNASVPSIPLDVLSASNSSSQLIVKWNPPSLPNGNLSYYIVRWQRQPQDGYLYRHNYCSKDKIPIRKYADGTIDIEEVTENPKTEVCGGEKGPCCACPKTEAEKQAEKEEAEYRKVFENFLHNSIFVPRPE
Chain of IGF-1 receptor (P08069 741-1367 partner limits assumed): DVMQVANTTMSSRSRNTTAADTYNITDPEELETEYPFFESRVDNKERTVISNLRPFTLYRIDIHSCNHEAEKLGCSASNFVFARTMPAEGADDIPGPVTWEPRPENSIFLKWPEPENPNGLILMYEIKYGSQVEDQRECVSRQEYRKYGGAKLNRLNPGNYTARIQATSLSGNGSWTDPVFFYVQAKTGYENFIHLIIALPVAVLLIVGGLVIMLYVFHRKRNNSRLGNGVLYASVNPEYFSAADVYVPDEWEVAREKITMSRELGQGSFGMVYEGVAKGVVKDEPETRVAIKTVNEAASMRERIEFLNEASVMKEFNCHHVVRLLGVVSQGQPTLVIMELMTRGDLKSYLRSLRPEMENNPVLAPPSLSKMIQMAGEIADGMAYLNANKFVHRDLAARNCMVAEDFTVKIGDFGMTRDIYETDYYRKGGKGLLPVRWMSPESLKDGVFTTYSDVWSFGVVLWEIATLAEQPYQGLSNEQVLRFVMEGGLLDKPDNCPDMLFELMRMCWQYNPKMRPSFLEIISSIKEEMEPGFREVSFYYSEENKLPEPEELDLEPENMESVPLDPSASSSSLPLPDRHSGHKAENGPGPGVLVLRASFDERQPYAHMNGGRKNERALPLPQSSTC

Molecule: CC[C@H](C)[C@H](NC(=O)CN)C(=O)N[C@H](C(=O)N[C@@H](CC(=O)O)C(=O)N[C@@H](CCC(=O)O)C(=O)N[C@H]1CSSC[C@@H]2NC(=O)[C@H](CO)NC(=O)[C@H](CCCNC(=N)N)NC(=O)[C@H](Cc3ccccc3)NC(=O)[C@H](CSSC[C@H](NC(=O)[C@H](CC(C)C)NC(=O)[C@@H](NC(=O)[C@H](CCC(=O)O)NC(=O)[C@@H]3CCCN3C(=O)CN)[C@@H](C)O)C(=O)NCC(=O)N[C@@H](C)C(=O)N[C@@H](CCC(=O)O)C(=O)N[C@@H](CC(C)C)C(=O)N[C@@H](C(C)C)C(=O)N[C@@H](CC(=O)O)C(=O)N[C@@H](C)C(=O)N[C@@H](CC(C)C)C(=O)N[C@@H](Cc3ccc(O)cc3)C(=O)N[C@@H](CC(C)C)C(=O)N[C@@H](C(C)C)C(=O)N[C@H](C(=O)NCC(=O)N[C@@H](CC(=O)O)C(=O)N[C@@H](CCCNC(=N)N)C(=O)NCC(=O)N[C@@H](Cc3ccccc3)C(=O)N[C@@H](Cc3ccc(O)cc3)C(N)=O)CSSC[C@@H](C(=O)N[C@@H](C)C(N)=O)NC(=O)[C@H](Cc3ccc(O)cc3)NC(=O)[C@H](CCSC)NC(=O)[C@H](CCC(=O)O)NC(=O)[C@H](CC(C)C)NC(=O)[C@H](CCCNC(=N)N)NC(=O)[C@H](CCCNC(=N)N)NC(=O)[C@H](CC(C)C)NC(=O)[C@H](CC(=O)O)NC2=O)NC1=O)C(C)C [IGF-1 A:B (E10Y16L17) DPI]
% IGF-1 (in test) (IGF-1 receptor): 3.3%

Molecule: CC[C@H](C)[C@H](NC(=O)CN)C(=O)N[C@H](C(=O)N[C@@H](CC(=O)O)C(=O)N[C@@H](CCC(=O)O)C(=O)N[C@H]1CSSC[C@@H]2NC(=O)[C@H](CO)NC(=O)[C@H](CCCNC(=N)N)NC(=O)[C@H](Cc3ccccc3)NC(=O)[C@H](CSSC[C@H](NC(=O)[C@H](CC(C)C)NC(=O)[C@H](Cc3c[nH]cn3)NC(=O)[C@H](CCC(N)=O)NC(=O)[C@H](CC(N)=O)NC(=O)[C@@H](NC(=O)[C@@H](N)Cc3ccccc3)C(C)C)C(=O)NCC(=O)N[C@@H](CO)C(=O)N[C@@H](Cc3c[nH]cn3)C(=O)N[C@@H](CC(C)C)C(=O)N[C@@H](C(C)C)C(=O)N[C@@H](CCC(=O)O)C(=O)N[C@@H](C)C(=O)N[C@@H](CC(C)C)C(=O)N[C@@H](Cc3ccc(O)cc3)C(=O)N[C@@H](CC(C)C)C(=O)N[C@@H](C(C)C)C(=O)N[C@H](C(=O)NCC(=O)N[C@@H](CC(=O)O)C(=O)N[C@@H](CCCNC(=N)N)C(=O)NCC(=O)N[C@@H](Cc3ccccc3)C(=O)N[C@@H](Cc3ccc(O)cc3)C(=O)N[C@@H](Cc3ccccc3)C(=O)N[C@@H](CC(N)=O)C(=O)N[C@@H](CCCCN)C(=O)N3CCC[C@H]3C(=O)N[C@H](C(N)=O)[C@@H](C)O)CSSC[C@@H](C(=O)N[C@@H](C)C(N)=O)NC(=O)[C@H](Cc3ccc(O)cc3)NC(=O)[C@H](CCSC)NC(=O)[C@H](CCC(=O)O)NC(=O)[C@H](CC(C)C)NC(=O)[C@H](CCCNC(=N)N)NC(=O)[C@H](CCCNC(=N)N)NC(=O)[C@H](CC(C)C)NC(=O)[C@H](CC(=O)O)NC2=O)NC1=O)C(C)C [IGF-1 A:In (1-17)-IGF-1 B(18-30)]
IC80 (IGF-1 receptor): 62.5 nM

Molecule: CC[C@H](C)[C@H](NC(=O)CN)C(=O)N[C@H](C(=O)N[C@@H](CC(=O)O)C(=O)N[C@@H](CCC(=O)O)C(=O)N[C@H]1CSSC[C@@H]2NC(=O)[C@H](CO)NC(=O)[C@H](CCCNC(=N)N)NC(=O)[C@H](Cc3ccccc3)NC(=O)[C@H](CSSC[C@H](NC(=O)[C@H](CC(C)C)NC(=O)[C@H](Cc3c[nH]cn3)NC(=O)[C@H](CCC(N)=O)NC(=O)[C@H](CC(N)=O)NC(=O)[C@@H](NC(=O)[C@@H](N)Cc3ccccc3)C(C)C)C(=O)NCC(=O)N[C@@H](C)C(=O)N[C@@H](CCC(=O)O)C(=O)N[C@@H](CC(C)C)C(=O)N[C@@H](C(C)C)C(=O)N[C@@H](CC(=O)O)C(=O)N[C@@H](C)C(=O)N[C@@H](CC(C)C)C(=O)N[C@@H](Cc3ccc(O)cc3)C(=O)N[C@@H](CC(C)C)C(=O)N[C@@H](C(C)C)C(=O)N[C@H](C(=O)NCC(=O)N[C@@H](CC(=O)O)C(=O)N[C@@H](CCCNC(=N)N)C(=O)NCC(=O)N[C@@H](Cc3ccccc3)C(=O)N[C@@H](Cc3ccc(O)cc3)C(=O)N[C@@H](Cc3ccccc3)C(=O)N[C@@H](CC(N)=O)C(=O)N[C@@H](CCCCN)C(=O)N3CCC[C@H]3C(=O)N[C@H](C(N)=O)[C@@H](C)O)CSSC[C@@H](C(=O)N[C@@H](C)C(N)=O)NC(=O)[C@H](Cc3ccc(O)cc3)NC(=O)[C@H](CCSC)NC(=O)[C@H](CCC(=O)O)NC(=O)[C@H](CC(C)C)NC(=O)[C@H](CCCNC(=N)N)NC(=O)[C@H](CCCNC(=N)N)NC(=O)[C@H](CC(C)C)NC(=O)[C@H](CC(=O)O)NC2=O)NC1=O)C(C)C [IGF-1 A:In B(1-5)-IGF-1 B(YL) (6-30)]
% IGF-1 (in test) (IGF-1 receptor): 3.6%

Molecule: B1-PEG20K MIU-35 (GPEHLCGAHLVDALYLVCGDRGFYGYGSSSRRAPQTGIVDECCHRSCDLRRLENYCN; not fully specified (N-terminus); ends and bridges not checked; also: PEG20K at B1) [#39]
% Insulin Activity IR-B ([1]; Table 12): 1.1%
IR-B ([1]; Table 13): 1.1%
Phosphorylation (EC50) % IR-B ([1]; Table 17): 1.1%
% Insulin Activity IR-A ([2]; Table 12): 3.1%
IR-A ([2]; Table 13): 4.5%
Phosphorylation (EC50) % IR-A ([2]; Table 17): 4.5%

Molecule: B^1(H5,10Y16L17K29)29-A^1(H8,N18,21) (GPEHLCGAHLVDALYLVCGDRGFYFNKKGIVDECCHRSCDLRRLENYCN) [DP3(SC)]
IR-A ([2]; Table 14): 0.03%

Molecule: B^1(H5,10Y16L17K29)29:A^1(H8,N18,21) (chain 1 GPEHLCGAHLVDALYLVCGDRGFYFNKK; chain 2 GIVDECCHRSCDLRRLENYCN) [DP3(TC)]
IR-B ([1]; Table 14): 33.1%
IR-A ([2]; Table 14): 159.8%

Molecule: B^1(H5,10Y16L17R29)30-C^1des9-12-A^1(H8,K14,N18,21) (GPEHLCGAHLVDALYLVCGDRGFYFNKRTGYGSSSRRGIVDECCHRSCDLKRLENYCN) [DP8Mut3KA14]
IR-B ([1]; Table 14): 12.6%
IR-A ([2]; Table 14): 132.2%

B1: GE5W-B^1(H5,10Y16L17)25-C^1-A^1(A1H8N18,21) (protein)
chain: GEEEEEWGPEHLCGAHLVDALYLVCGDRGFYGYGSSSRRAPQTAIVDECCHRSCDLRRLENYCN
IR-B ([1]; Table 13): 0.7%
IR-A ([2]; Table 13): 2.1%

Continued, values first:

IR-B ([1]; Table 14): 2.1%
IR-A ([2]; Table 14): 6.4%
Molecule: B1,A14-10K B^1(H5,10Y16L17R29)29:A^1(H8K14N18,21) (chain 1 GPEHLCGAHLVDALYLVCGDRGFYFNKR; chain 2 GIVDECCHRSCDLKRLENYCN) [di-10K-TC]

IR-B ([1]; Table 14): 0.2%
IR-A ([2]; Table 14): 1.7%
Molecule: B1,A14-10K B^1(H5,10Y16L17R29)30-C^1des9-12-A^1(H8,K14,N18,21) (GPEHLCGAHLVDALYLVCGDRGFYFNKRTGYGSSSRRGIVDECCHRSCDLKRLENYCN) [MIU-79]

IR-B ([1]; Table 13): 8.4%
IR-A ([2]; Table 13): 20.4%
Molecule: B^1(H5,10Y16L17)25-C^1-A^1(T8N18,21) (GPEHLCGAHLVDALYLVCGDRGFYGYGSSSRRAPQTGIVDECCTRSCDLRRLENYCN) [Thr,A8]
